Assay results taken from US20030059763A1, “Immunoglobulin class switch recombination” (priority 2001, published 2003).

Assays:
[1] = tested on: plasmid p77D3.11 (human Sμ and Sε); assay: In vitro (cell-free) switch recombination assay, white vs blue colonies; type: biochemical; conditions: added to the recombination reaction; EDTA 10 mM
Experimental: Nuclear cell extracts from primary human B cells and cell lines were prepared by the Nonidet P-40 (NP-40) lysis method (Dyer and Herzog, BioTechniques 19:192-195 (1995)) with important modifications. Briefly, 10^8 (10^7 for cell lines) purified fresh human tonsillar B lymphocytes (Zhang et al., 1994, supra) were harvested following culture for 3 days with or without 0.1 μg/ml of anti-CD40 monoclonal antibody G28.5 (Zhang et al., 1994, supra) and were lysed with 1 ml of sucrose buffer (0.32 M sucrose, 3 mM CaCl2, 2 mM magnesium acetate, 0.1 mM EDTA, 10 mM Tris-HCl, pH 8.0, 1 mM DTT, 0.5 mM PMSF) containing 0.5% (vol/vol) NL-40 (BRL, Gaithersburg, Mich.). The cells were lysed immediately and the intact nuclei were pelleted by centrifugation at 2400 rpm/5 min at 4° C. The nuclei were washed twice (10^8 B cells/ml) with ice-cold sucrose buffer lacking NP-40. The pelleted nuclei were suspended in 50 μl/10^8 B cells with low-salt buffer (20 mM Hepes, pH 7,6, 25% glycerol, 1.5 mM MgCl2, 20 mM KCl, 0.2 mM EDTA, 0.5 mM DTT, 0.5 mM PMSF) followed by slowly adding 1 vol of high-salt buffer (20 mM Hepes, pH 7.6, 25% glycerol, 1.5 mM MgCl2, 800 mL KCl, 0.2 mM EDTA, 0.5 mM DTT, 0.5 mM PMSF) at 4° C. for 30 min with agitation for nuclear protein extraction. […] The concentration of the nuclear protein was determined by Bradford assay. […]

[2] = target: CD40 on human B lymphoma cell line Ramos 2G6 (stably transfected with switch constructs XF-1 / XF-5a) (human) (UniProt P25942); assay: cell-based or functional assay
Sequence of CD40 on human B lymphoma cell line Ramos 2G6 (stably transfected with switch constructs XF-1 / XF-5a) (human) (P25942 21-277): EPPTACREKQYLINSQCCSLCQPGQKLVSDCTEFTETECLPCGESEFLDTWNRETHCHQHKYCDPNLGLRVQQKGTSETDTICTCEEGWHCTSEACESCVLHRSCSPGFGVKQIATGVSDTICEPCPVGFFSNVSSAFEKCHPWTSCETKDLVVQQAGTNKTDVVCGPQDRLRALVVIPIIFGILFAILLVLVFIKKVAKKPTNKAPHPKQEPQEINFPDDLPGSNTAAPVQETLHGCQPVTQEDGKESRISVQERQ

[3] = tested on: Ramos 2G6 cells stably transfected with XF-1; assay: Substrate switch recombination (SSR), GFP positive cells by FACS, construct XF-1; type: cell-based, human; conditions: XF-1 cells; cytokines alone or in combination with CD40 mAb
Description: (§1) The backbone of our switch substrate contained 1.6 Kb of the human Sμ (Zhang and Cheah, 2000, supra) and 1.8 Kb of the human Sγ2 regions (Mills et al, 1995, supra) under the transcriptional control of the CMV (pCMV) and the SV40 promoters (pSV40) respectively. A RSV LTR enhancer/promoter (pRC/RSV-LTR) and a GFP gene under the control of an internal ribosome entry site (IRES) were interposed between Sμ and Sγ2 in the reverse transcriptional orientation (FIG. 1A). Thus, the GFP gene will not be expressed within the gennline configuration of the construct. Detection of switch recombination between the Sμ and Sγ2 in the construct is based on the mechanism of the deletional recombination that excises and deletes the intervening DNA sequences between the Sμ and Sγ2. This excised sequence including the IRES-GFP expression unit forms an extrachromosomal circular DNA that is now under the transcriptional control of the pRSV-LTR (FIG. 1A). The RNA splice donor and acceptor sites permit uniform expression of the GFP from the excised circular DNA (FIG. 1A). Since the GFP gene is expressed only after the switch recombination (recombination or inversion, FIG. 1A) between the Sμ and Sγ2, switch recombination can be monitored in the cultured living cells in “real-time” by fluorescence microscopy. Furthermore, the frequency of switch recombination can be quantitatively measured by flow cytometry.
(§2) To test the potential roles of DNA sequences that may control or regulate the processes involved in switch recombination, the DNA fragments of interest were engineered into the basic switch construct (XF-1) to generate a series of modified switch constructs as diagrammed in the FIG. 1B. All the modified constructs were transfected into Ramos 2G6 cells as stable constructs to establish the switch cell lines. The integrity and copy number of the constructs were determined by Southern Blot analysis and PCR. Only subclones that contain a single copy of the construct were used. To distinguish the substrate switch recombination described here from switch recombination occurring at the intrinsic IgH loci (e.g., CSR), the former is abbreviated as SSR.
(§3) The human B lymphoma cell line Ramos 2G6 (ATCC, Rockville pike, Md.) and its subclones, L cells stably transfected with human CD40L (CD154) provided by D. Rawlings, UCLA), and CHO cells stably transfected with murinc CD40L (Immunex Inc, Seattle, Wash.) were maintained and cultured in complete PRMI 1640 (Zhang et al, 1994, supra). One million cells in 0.2 ml were transfected with 10 μg plasmid DNA by electroporation (200V, 0.975 μF). Genicitin (G418) was added to cultures two days later for clonal selection and the levels increased over four week to concentrations that were previously determined by dosage titration for the different cell lines.
(§4) The expression of GFP in cell lines stably transfected with switch vectors following various stimulated culture conditions was measured by either single- or dual-color flow cytometry (FACS Core laboratory, UCLA). The data were analyzed with FCS express software (De Novo software Inc, Thornhill, Ontario, Canada).

Ramos 2G6/XF-5a.1 cells = assay: Substrate switch recombination (SSR), GFP positive cells by FACS, construct XF-5a; type: cell-based, human; conditions: for effect on SSR: XF-5a / XF-5a.1 cells, antibodies 1 μg/ml, cytokines 5 ng/ml alone or with CD40 mAb
Description: pXF-5a: A PCR amplified 356 bp fragment containing Iε exon and its 5′ promoter region (pIε) was inserted into Xho I and Xba I sites in pXF-1.
as §1, §2, §3, §4

[4] = tested on: Ramos 2G6 cells stably transfected with XF-2b; assay: Substrate switch recombination (SSR), construct XF-2b; type: cell-based, human; conditions: XF-2b cells
Description: pXF-2b: The CMV promoter in pXF-2a was deleted by removal of the Ase I and Xho I fragment.
as §2
as §3, with “One million cells in 0.2 ml were transfected with 10 μg plasmid DNA by electroporation (200V, 0.975 μF).” left out, “lines. […]” for “lines.”

[5] = tested on: Iε-Cε1′ transcripts in Ramos 2G6/XF-5a.1 cells; assay: RT-PCR of processed Iε-Cε1′ transcripts from the construct; type: cell-based, human; conditions: 48 hours, IL-4 1 ng/ml, CD40 mAb 1 μg/ml
Experimental: The cells were cultured in the presence of IL-4 (1 ng/ml) and CD40 mAb (1 μg/ml) for 48 hours following by RNA preparation and RT-PCR. Total RNA (2 μg) was used for reverse-transcription and cDNA derived from 0.2 μg of RNA was subject to PCR amplification using the primers diagrammed in the FIG. 7B. The ratio of SSR from the cultures (assayed at day 5) is shown in the bottom. […] Diagrams of the formation of the “germ line” transcripts Iε-Cε1′ from the transgenes and the Iε-Cε2 from the endogenous IgH ε locus are shown in the FIG. 7B. The arrows represent the positions of the primers used for PCR.
PCR and […] (RT-PCR) were performed as described previously (Zhang et al, 1994, supra; Zhang and Cheah, 2000, supra). For amplification of the Sμ-Sγ2 products, genomic DNA from the stably transfected Ramos 2G6 cells was amplified with PCR Kit for GC-rich DNA (Clonetech, Palo Alto, Calif.). […]
The role of transcriptional activity vs. SSR was further investigated using Ramos 2G6/XF-5a.1. As the XF-5a construct contains the Iε exon and a Cε1 exon (referred to as Cε1′) that is able to form processed transcripts through RNA splicing, transcriptional activity of the construct can be semi-quantitatively determined by measuring the Iε-Cε1′ transcripts by RT-PCR (FIG. 7). […]

Molecule	effect on SSR frequency [3]	effect on SSR (Ramos 2G6/XF-5a.1 cells)	further results
O=C(O)CN(CCN(CC(=O)O)CC(=O)O)CC(=O)O [EDTA]	–	–	effect on recombination activity [1]: almost completely blocked the activity
Anti-CD40 mAb G28.5 (antibody)	–	–	GFP expression level (percent of cells), Ramos 2G6/XF-5a.1, in the presence of IL-4 [2]: > 50%; SSR frequency (percent GFP positive cells), Ramos 2G6/XF-5a.1, without IL-4 [2]: 3.2%; SSR rate (percent GFP positive cells), Ramos 2G6 with construct XF-1 [2]: 1.9%
IL-5: cytokine	did not increase	did not increase	–
IL-6: cytokine	did not increase	did not increase	–
TGF-β	did not increase	did not increase	–
IL-4: cytokine purchased from R & D system (protein, UniProt P05112 25-153, looked up) Interleukin-4: HKCDITLQEIIKTLNSLTEQKTLCTELTVTDIFAASKNTTEKETFCRAATVLRQFYSHHEKDTRCLGATAQQFHRHKQLIRFLKRLDRNLWGLAGLNSCPVKEANQSTLENFLERLKTIMREKYSKCSS	marginal effects	limited effects	GFP expression, plateau of IL-4 dose-response (Ramos 2G6/XF-5a.1 cells; XF-5a cells, in the presence of CD40 mAb (1 μg/ml), plateau at 3 ng/ml IL-4): around 50%; SSR [4]: efficient SSR did not result; change of level of processed Iε-Cε1′ transcripts over pCMV-driven level [5]: minimally increased
IFN-γ: cytokine (protein, UniProt P01579 24-161, looked up) Interferon gamma: QDPYVKEAENLKKYFNAGHSDVADNGTLFLGILKNWKEESDRKIMQSQIVSFYFKLFKNFKDDQSIQKSVETIKEDMNVKFFNSNKKKRDDFEKLTNYSVTDLNVQRKAIHELIQVMAELSPAAKTGKRKRSQMLFRG	did not increase	did not increase	–
IL-10: cytokine (protein, UniProt P22301 19-178, looked up) Interleukin-10: SPGQGTQSENSCTHFPGNLPNMLRDLRDAFSRVKTFFQMKDQLDNLLLKESLLEDFKGYLGCQALSEMIQFYLEEVMPQAENQDPDIKAHVNSLGENLKTLRLRLRRCHRFLPCENKSKAVEQVKNAFNKLQEKGIYKAMSEFDIFINYIEAYMTMKIRN	did not increase	did not increase	–
